{"source": "patent US20220041746A1", "about": "(Sanofi, published 2022)", "key": {"[1]": {"target": "T1, recombinant human CD38 (SPR of Example 4) (human, UniProt P28907 45-300, limits assumed)", "test": "SPR, target binding without other targets present", "protocol": "(§1) Surface regenerate was conducted by injecting 10 mM Glycine-HCl pH 2.5 for 60 sec at 30 μl/min. […] Equilibrium dissociation constant (KD) was calculated using association rate constant (kₒₙ) and dissociation rate constant (koff).\n(§2) Next, each antigen binding domain of the CD38SB19×CD28ₛᵤₚ×CD3mid specific binding protein was evaluated by SPR for the ability to bind cognate antigen with and without the other two antigen binding domains in saturation."}, "[2]": {"target": "T2, human CD38 expressed on the cell surface (human, UniProt P28907 1-300)", "T2 construct": "whole, on cells; also called hCD38-expressing cells; huCD38", "test": "flow cytometry on preB::300.19 cells, apparent KD", "protocol": "(§3) The recombinant cell line was described by J. Deckket et al. 2014 Clin. Cancer Res 20:4574-4583. […] Antibody binding was evaluated after centrifugation and resuspension of cells by adding 200 μl/well PBS 1% BSA and read using Guava® easyCyte™ 8HT Flow Cytometry System. Apparent KD and EC50 values were estimated using BIOST®T-BINDING and BIOST®T-SPEED software, respectively."}, "[3]": {"target": "T2, human CD38 expressed on the cell surface", "test": "flow cytometry on 300.19 huCD38 cells (PréB hCD38)", "protocol": "as §3"}, "[4]": {"target": "T1, recombinant human CD38 (SPR of Example …)", "test": "SPR, target binding with the other two targets in saturation", "protocol": "as §1, §2"}, "[5]": {"target": "T1, recombinant human CD38 (SPR of Example …)", "test": "SPR"}, "[6]": {"target": "T3, cynomolgus monkey CD38 expressed on the cell surface (cynomolgus monkey, UniProt Q5VAN0 1-301)", "T3 construct": "whole, on cells; also called cCD38-expressing cells", "test": "flow cytometry on 300.19 cynoCD38 cells (PréB cCD38)", "protocol": "as §3"}, "[7]": {"target": "T4, CD38 isoform A (SEQ ID NO:1) (human, UniProt P28907 45-300)", "T4 construct": "also called huCD38 isoform A", "test": "ELISA, plate coated with the CD38 isoform", "protocol": "(§4) 96-well plates were coated with either isoform at 0.5 μg/well in PBS and 100 μL/well of antibodies were added to the plate. The plate was incubated at 37° C. for 1 h and washed five times with PBS containing 0.05% Tween-20 (PBS-T). […] Following incubation at 37° C. for 1 h in darkness, plates were washed with PBS-T five times. Antibody binding w as visualized by adding TMB-H2O2 buffer and read at a wavelength of 450 nm. EC50 values were estimated using BIOST@T-SPEED software."}, "[8]": {"target": "T5, CD38 isoform E (SEQ ID NO:105) (human, UniProt P28907 45-195, limits assumed)", "T5 construct": "also called huCD38 isoform E", "test": "ELISA, plate coated with the CD38 isoform", "protocol": "as §4"}, "[9]": {"target": "T2, human CD38 expressed on the cell surface", "test": "flow cytometry on SU-DHL-8 cells (SUDHL8)"}, "[10]": {"target": "T2, human CD38 expressed on the cell surface", "test": "flow cytometry on preB::300.19 cells, apparent KD", "protocol": "as §3, with “Clin” for “Clin.”, “μL/well” for “μl/well”, “easvCyte™” for “easyCyte™”, “BIOST@T-BINDING” for “BIOST®T-BINDING”, “BIOST@T-SPEED” for “BIOST®T-SPEED”", "remark": "listed apart in the source"}, "[11]": {"target": "T3, cynomolgus monkey CD38 expressed on the …", "test": "flow cytometry on preB::300.19 cells, apparent KD", "protocol": "as §3, with “Clin” for “Clin.”, “μL/well” for “μl/well”, “easvCyte™” for “easyCyte™”, “BIOST@T-BINDING” for “BIOST®T-BINDING”, “BIOST@T-SPEED” for “BIOST®T-SPEED”"}, "[12]": {"target": "T2, human CD38 expressed on the cell surface", "test": "flow cytometry on preB::300.19 cells, apparent KD", "protocol": "as §3, with “Clin” for “Clin.”, “μL/well” for “μl/well”, “easvCyte™” for “easyCyte™”, “BIOST@T-BINDING” for “BIOST®T-BINDING”, “BIOST@T-SPEED” for “BIOST®T-SPEED”", "remark": "listed apart in the source"}, "[13]": {"target": "T3, cynomolgus monkey CD38 expressed on the …", "test": "flow cytometry on preB::300.19 cells, apparent KD", "protocol": "as §3, with “Clin” for “Clin.”, “μL/well” for “μl/well”, “easvCyte™” for “easyCyte™”, “BIOST@T-BINDING” for “BIOST®T-BINDING”, “BIOST@T-SPEED” for “BIOST®T-SPEED”", "remark": "listed apart in the source"}, "[14]": {"target": "T3, cynomolgus monkey CD38 expressed on the …", "test": "flow cytometry on PreB cynoCD38-expressing cells"}, "hCD38-his (SEQ ID NO: 2) [15]": {"target": "T6, hCD38-his (SEQ ID NO: 2) (human, UniProt P28907 45-300)", "T6 construct": "His-tagged soluble protein derived from isoform A; also called human CD38-histag; hCD38::Histag", "test": "SPR, mAb captured via anti-human Fc, soluble CD38-his injected", "protocol": "(§5) The binding properties of the anti-huCD38 mabs were evaluated using a BIAcore 2000 (BIAcore Inc., Uppsala, Ni). […] The surface was regenerated between injections using 30 μL of 50 mM NaOH-1 M NaCl. Individual sensorgrams wore analyzed using BIAsimulation software."}, "cCD38-his (SEQ ID NO: 4) [16]": {"target": "T7, cCD38-his (SEQ ID NO: 4) (cynomolgus monkey, UniProt Q5VAN0 46-301)", "T7 construct": "His-tagged soluble protein; also called cyno CD38-histag; cynoCD38::Histag", "test": "SPR, mAb captured via anti-human Fc, soluble CD38-his injected", "protocol": "as §5"}, "hCD38-his (SEQ ID NO: 2) [17]": {"target": "T6, hCD38-his (SEQ ID NO: 2)", "test": "SPR, mAb captured via anti-human Fc, soluble CD38-his injected", "protocol": "as §5", "remark": "listed apart in the source"}, "cCD38-his (SEQ ID NO: 4) [18]": {"target": "T7, cCD38-his (SEQ ID NO: 4)", "test": "SPR, mAb captured via anti-human Fc, soluble CD38-his injected", "protocol": "as §5", "remark": "listed apart in the source"}, "[19]": {"target": "T2, human CD38 expressed on the cell surface", "test": "flow cytometry on MOLP-8 multiple myeloma cells [Cont.]"}}, "note": "Where “and” joins values, the source holds several entries; their conditions need not be identical. Identical values can stand only once. Like-named read-outs stand apart in the source and are kept apart here.", "data": [{"binder": "CD38SB19×CD28sup×CD3mid trispecific binding protein (other) VH 1: QVQLVQSGAEVAKPGTSVKLSCKASGYTFTDYWMQWVKQRPGQGLEWIGTIYPGDGDTGYAQKFQGKATLTADKSSKTVYMHLSSLASEDSAVYYCARGDYYGSNSLDYWGQGTSVTVSS VL 1: DIVMTQSHLSMSTSLGDPVSITCKASQDVSTVVAWYQQKPGQSPRRLIYSASYRYIGVPDRFTGSGAGTDFTFTISSVQAEDLAVYYCQQHYSPPYTFGGGTKLEIK VH 2: QVQLVQSGAEVVKPGASVKVSCKASGYTFTSYYIHWVRQAPGQGLEWIGSIYPGNVNTNYAQKFQGRATLTVDTSISTAYMELSRLRSDDTAVYYCTRSHYGLDWNFDVWGKGTTVTVSS VL 2: DIQMTQSPSSLSASVGDRVTITCQASQNIYVWLNWYQQKPGKAPKLLIYKASNLHTGVPSRFSGSGSGTDFTLTISSLQPEDIATYYCQQGQTYPYTFGQGTKLEIK VH 3: QVQLVESGGGVVQPGRSLRLSCAASGFTFTKAWMHWVRQAPGKQLEWVAQIKDKSNSYATYYADSVKGRFTISRDDSKNTLYLQMNSLRAEDTAVYYCRGVYYALSPFDYWGQGTLVTVSS VL 3: DIVMTQTPLSLSVTPGQPASISCKSSQSLVHNNANTYLSWYLQKPGQSPQSLIYKVSNRFSGVPDRFSGSGSGTDFTLKISRVEAEDVGVYYCGQGTQYPFTFGSGTKVEIK", "values": [{"measurement": "Kd", "setting": "[1]", "value": 1.75, "unit": "nM"}, {"measurement": "Kd", "setting": "[2]", "value": 4, "unit": "nM"}, {"measurement": "EC50", "setting": "[3]", "value": "4 nM and 0.603 µg/mL"}, {"measurement": "Kd", "setting": "[4]", "value": 2.42, "unit": "nM"}]}, {"binder": "CD38HHY1370×CD28sup×CD3mid (other) VH 1: QVQLVESGGGVVQPGRSLRLSCAASGFTFSSYGMHWVRQAPGKGLEWVAVIWYDGSNKYYADSVKGRFTISGDNSKNTLYLQMNSLRAEDTAVYYCARMFRGAFDYWGQGTLVTVSS VL 1: AIQMTQSPSSLSASVGDRVTITCRASQGIRNDLGWYQQKPGKAPKLLIYAASSLQSGVPSRFSGSGSGTDFTLTISGLQPEDSATYYCLQDYIYYPTFGQGTKVEIK VH 2: QVQLVQSGAEVVKPGASVKVSCKASGYTFTSYYIHWVRQAPGQGLEWIGSIYPGNVNTNYAQKFQGRATLTVDTSISTAYMELSRLRSDDTAVYYCTRSHYGLDWNFDVWGKGTTVTVSS VL 2: DIQMTQSPSSLSASVGDRVTITCQASQNIYVWLNWYQQKPGKAPKLLIYKASNLHTGVPSRFSGSGSGTDFTLTISSLQPEDIATYYCQQGQTYPYTFGQGTKLEIK VH 3: QVQLVESGGGVVQPGRSLRLSCAASGFTFTKAWMHWVRQAPGKQLEWVAQIKDKSNSYATYYADSVKGRFTISRDDSKNTLYLQMNSLRAEDTAVYYCRGVYYALSPFDYWGQGTLVTVSS VL 3: DIVMTQTPLSLSVTPGQPASISCKSSQSLVHNNANTYLSWYLQKPGQSPQSLIYKVSNRFSGVPDRFSGSGSGTDFTLKISRVEAEDVGVYYCGQGTQYPFTFGSGTKVEIK", "values": [{"measurement": "Kd", "setting": "[5]", "value": 1, "unit": "nM"}, {"measurement": "binding result", "setting": "[6]", "value": "binds"}]}, {"binder": "mAb1 (antibody, human IgG1, kappa, V domains shown, also called antiCD38_C2-CD38-1) VH: QVQLQQSGAELVRSGASVKMSCKASGYTFTSFNMHWVKETPGQGLEWIGYIYPGNGGTNYNQKFKGKATLTADTSSSTAYMQISSLTSEDSAVYFCARTGGLRRAYFTYWGQGTLVTVSS VL: DIVLTQSPASLAVSLGQRATISCRASESVDSYGNGFMHWYQQKPGQPPKLLIYLASNLESGVPARFSGSGSRTDFTLTIDPVEADDAATYYCQQNKEDPWTFGGGTKLEIKR", "values": [{"measurement": "EC50", "setting": "[7]", "value": 0.11, "unit": "nM"}, {"measurement": "EC50", "setting": "[8]", "value": 0.08, "unit": "nM"}, {"measurement": "EC50", "setting": "[9]", "value": "0.24 nM and 0.0366 µg/mL"}, {"measurement": "Kd", "setting": "[10]", "value": 0.28, "unit": "nM"}, {"measurement": "Kd", "setting": "[11]", "value": 0.22, "unit": "nM"}, {"measurement": "Kd", "setting": "[12]", "value": 0.28, "unit": "nM"}, {"measurement": "Kd", "setting": "[13]", "value": 0.22, "unit": "nM"}, {"measurement": "EC50", "setting": "[14]", "value": "0.033 µg/mL and 0.15 nM"}, {"measurement": "Kd", "setting": "hCD38-his (SEQ ID NO: 2) [15]", "value": 0.336, "unit": "nM"}, {"measurement": "koff", "setting": "hCD38-his (SEQ ID NO: 2) [15]", "value": 0.000266, "unit": "s⁻¹"}, {"measurement": "Kd", "setting": "cCD38-his (SEQ ID NO: 4) [16]", "value": 0.39, "unit": "nM"}, {"measurement": "koff", "setting": "cCD38-his (SEQ ID NO: 4) [16]", "value": "9.85e-05", "unit": "s⁻¹"}, {"measurement": "Kd", "setting": "hCD38-his (SEQ ID NO: 2) [17]", "value": 0.336, "unit": "nM"}, {"measurement": "koff", "setting": "hCD38-his (SEQ ID NO: 2) [17]", "value": 0.000266, "unit": "s⁻¹"}, {"measurement": "Kd", "setting": "cCD38-his (SEQ ID NO: 4) [18]", "value": 0.39, "unit": "nM"}, {"measurement": "koff", "setting": "cCD38-his (SEQ ID NO: 4) [18]", "value": "9.85e-05", "unit": "s⁻¹"}, {"measurement": "EC50", "setting": "[19]", "value": "0.98 nM and 0.148 µg/mL"}]}]}
